Experiments:
[1] = tested on: HeLa cells transfected with the GFP1:Caspase-3:Rluc sensor; test: apoptosis induction BRET assay, GFP1:Caspase-3:Rluc sensor; assay type: cell-based; settings: 1 μM staurosporine, 5 hours, 37° C.; DeepBlueC; at time zero; ratio decreased
Procedure: (§1) PGFP1:caspase-3:Rluc DNAs and the original plasmid pGFP1::Rluc (without the caspase-3 site) were transfected into HeLa cell using LipofectAMINE (BRL/Gibco-Life technologies) in 100 mm dishes and 8 μg of plasmid DNA as described in the manufacturer's protocol. Twenty-four hours post-transfection transfected cells were harvested and distributed into 96-well microtiterplate (white Optiplate from Packard) at a density of 30 000 cells per well. The following day, cells were washed with PBS and were induced to undergo apoptosis by adding 100 μl of Iscove media without serum and phenol red (BRL/Life Technologies) containing staurosporine at a final concentration of 1 μM (+inducer; see FIG. 13) or 100 μl of Iscove alone (-inducer). Cells were incubated for 5 hours at 37° C. After this period, 50 μl of BRET buffer (PBS Ca^2+/Mg^2++glucose without aprotinin) and 50 μl of DeepBlueC (20 μM) were added to start the bioluminescence reaction. Total assay volume was 200 μl. Light emissions were detected using the BRETCount (read length of 1 sec. for each filter, SPC mode, temperature 25° C.).

[2] = tested on: HeLa cells transfected with the apoptosis Rluc:Caspase:EYFP sensor; test: apoptosis induction BRET assay, Rluc:Caspase:EYFP sensor; assay type: cell-based; settings: 1 μM staurosporine, 5 hours, 37° C.; coelenterazine h; ratios decreased
Procedure: pCEP4/Rluc-EYFP and pCEP4/Rluc-caspase-EYFP DNAs were transfected into HeLa cell using LipofectAMINE (BRL/Gibco-Life technologies) in 100 mm dishes as described in the manufacturer's protocol. 24 hours post-transfection, transfected cells were harvested and distributed into 96-well microtiterplates (white Optiplate from Packard) at a density of 30,000 cells per well. The following day, cells were induced to undergo apoptosis using 1 μM staurosporine dissolved in ISCOVE media (BRL/Gibco-Life technologies) without serum and phenol red at 37° C. (total volume here is 100 μl) for 5 hours. 50 μl of BRET buffer (PBS Ca^2+/Mg^2++glucose without aprotinin) and 50 μl of coelenterazine h (20 μM) were added to start the bioluminescence reaction. Light emissions were detected using the BRETCount (read length 1 sec for each filter, temperature 25° C.). Data was collected 10 minutes after the addition of coelenterazine h. The assay was done in quadruplicate.

[3] = tested on: HeLa cells transfected with pGFP1::Rluc; test: apoptosis induction BRET assay, control construct without caspase-3 site; assay type: cell-based; settings: 1 μM staurosporine, 5 hours
Procedure: as §1

[4] = target: Rluc:caspase:EYFP fusion protein expressed in HeLa cells (pCEP4/Rluc-caspase-EYFP) (Renilla) (UniProt P27652); test: cell-based or functional assay
[5] = target: GFP1:caspase-3:Rluc fusion protein expressed in HeLa cells (pGFP1:caspase-3:Rluc) (Aequorea victoria; Renilla) [GFP: P42212]; test: cell-based or functional assay
[6] = target: Rluc:EYFP fusion protein, N-terminal His tag, purified from bacteria (pQE-32) (UniProt P27652)
[7] = target: Rluc:enterokinase:EYFP fusion protein, N-terminal His tag, purified from bacteria (pQE-32) (UniProt P27652)
Chain of Rluc:enterokinase:EYFP fusion protein, N-terminal His tag, purified from bacteria (pQE-32) (P27652 other isoform, or with tags, fused parts or gaps): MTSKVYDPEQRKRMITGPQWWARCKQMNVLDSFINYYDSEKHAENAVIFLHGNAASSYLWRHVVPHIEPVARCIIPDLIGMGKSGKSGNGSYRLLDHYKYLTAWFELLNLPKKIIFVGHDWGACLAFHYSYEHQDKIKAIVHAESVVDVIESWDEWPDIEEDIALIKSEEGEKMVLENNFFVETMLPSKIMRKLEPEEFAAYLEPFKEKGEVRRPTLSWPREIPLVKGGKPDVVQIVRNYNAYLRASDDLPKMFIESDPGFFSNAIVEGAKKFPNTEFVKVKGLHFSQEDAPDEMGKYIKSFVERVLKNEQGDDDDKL

Chain of Rluc:caspase:EYFP fusion protein expressed in HeLa cells (pCEP4/Rluc-caspase-EYFP) (Renilla) (P27652 other isoform, or with tags, fused parts or gaps): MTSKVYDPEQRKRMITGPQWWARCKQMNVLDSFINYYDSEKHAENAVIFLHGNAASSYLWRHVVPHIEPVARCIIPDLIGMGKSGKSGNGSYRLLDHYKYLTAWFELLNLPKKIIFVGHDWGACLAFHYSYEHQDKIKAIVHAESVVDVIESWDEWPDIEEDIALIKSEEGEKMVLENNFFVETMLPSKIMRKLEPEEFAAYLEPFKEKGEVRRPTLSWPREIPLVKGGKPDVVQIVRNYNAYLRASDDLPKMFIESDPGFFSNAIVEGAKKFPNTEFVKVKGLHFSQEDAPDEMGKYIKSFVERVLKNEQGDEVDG
Chain of Rluc:EYFP fusion protein, N-terminal His tag, purified from bacteria (pQE-32) (P27652 whole entry, the tested form may be a part): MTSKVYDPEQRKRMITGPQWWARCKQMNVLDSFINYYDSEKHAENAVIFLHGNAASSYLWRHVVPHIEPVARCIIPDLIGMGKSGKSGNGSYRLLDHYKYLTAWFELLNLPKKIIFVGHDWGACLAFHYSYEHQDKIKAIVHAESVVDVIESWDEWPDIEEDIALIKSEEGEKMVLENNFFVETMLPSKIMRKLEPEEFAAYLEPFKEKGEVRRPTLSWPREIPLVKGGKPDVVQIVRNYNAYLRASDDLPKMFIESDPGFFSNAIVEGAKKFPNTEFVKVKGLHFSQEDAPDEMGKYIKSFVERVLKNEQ

Compound: CN[C@@H]1C[C@H]2O[C@@](C)([C@@H]1OC)n1c3ccccc3c3c4c(c5c6ccccc6n2c5c31)C(=O)NC4 [staurosporine]
- BRET ratio change [1]: 0.72 unit
- BRET ratio change [2]: 0.1 unit
- change in BRET ratio [3]: No change in BRET ratio

Compound: cellular caspase-3 (HeLa cells) (from UniProt P42574 29-277) (enzyme)
- BRET ratio change in transfected HeLa cells after 5 hours of apoptosis induction by 1 uM staurosporine (unit (BRET ratio)) [4]: 0.1
- BRET ratio change in transfected HeLa cells after 5 hours of apoptosis induction by 1 uM staurosporine (unit (BRET ratio)) [5]: 0.72

Compound: enterokinase enzyme (Invitrogen, Carlsbad, Calif.)
- BRET ratio (emission at 550 nm / 470 nm) over four hours, purified protein with two units of enterokinase [6]: The ratios from the negative controls (Rluc and Rluc:EYFP) did not change over time when in the presence or absence of the enterokinase enzyme
- BRET ratio (emission at 550 nm / 470 nm) over four hours, purified protein with two units of enterokinase [7]: Only the ratio for the construct Rluc:enterokinase:EYFP in the presence of the enterokinase enzyme decreased over time

— patent US20040214227A1, “Bioluminescence resonance energy transfer (bret) fusion molecule and method of use” (priority 1999, published 2004)
